The experiment has as its target T1, BSA-Man (glycoprotein bearing 12 glycosylated sites) (bovine (from the name BSA), UniProt P02769 25-607, 12 glycosylated sites (mannose glycans, up to 12 glycans displayed)).
T1 construct: BSA (serum albumin) carrying mannose glycans; A neoglycoprotein; also called Man-BSA
As to the kind of experiment: SPR; BSA-Man titrated over a DC-SIGN S-ECD oriented surface (StrepTactin-functionalised CM3 chip, Biacore T200); 25 mM Tris pH 8, 150 mM NaCl, 4 mM CaCl2, 0.05% P20; steady state affinity model; apparent KD for the surface. The settings on record: both partners purified.

T1 sequence (P02769 25-607): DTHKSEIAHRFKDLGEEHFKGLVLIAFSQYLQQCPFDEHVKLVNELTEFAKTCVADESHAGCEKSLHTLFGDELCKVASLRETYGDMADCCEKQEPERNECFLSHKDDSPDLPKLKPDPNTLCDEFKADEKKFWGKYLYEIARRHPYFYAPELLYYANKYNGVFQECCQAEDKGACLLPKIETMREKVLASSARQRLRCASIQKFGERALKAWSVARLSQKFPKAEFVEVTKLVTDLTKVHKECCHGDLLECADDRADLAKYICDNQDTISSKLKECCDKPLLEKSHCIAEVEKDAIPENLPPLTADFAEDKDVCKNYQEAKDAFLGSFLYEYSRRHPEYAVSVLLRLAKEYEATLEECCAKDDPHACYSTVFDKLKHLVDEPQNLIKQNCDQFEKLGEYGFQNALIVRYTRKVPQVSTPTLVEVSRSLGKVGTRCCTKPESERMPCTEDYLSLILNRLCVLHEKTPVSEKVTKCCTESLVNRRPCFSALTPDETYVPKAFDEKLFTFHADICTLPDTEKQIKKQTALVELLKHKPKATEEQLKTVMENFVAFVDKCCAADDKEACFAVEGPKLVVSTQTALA

B1: DC-SIGN S-ECD (DC-SIGN extracellular domain tagged at its N-terminus with a StreptagII) (domain or fragment, UniProt Q9NNX6 66-404, looked up)
chain: SISQEQSRQDAIYQNLTQLKAAVGELSEKSKLQEIYQELTQLKAAVGELPEKSKLQEIYQELTRLKAAVGELPEKSKLQEIYQELTWLKAAVGELPEKSKMQEIYQELTRLKAAVGELPEKSKQQEIYQELTRLKAAVGELPEKSKQQEIYQELTRLKAAVGELPEKSKQQEIYQELTQLKAAVERLCHPCPWEWTFFQGNCYFMSNSQRNWHDSITACKEVGAQLVVIKSAEEQNFLQLQSSRSNRFTWMGLSDLNQEGTWQWVDGSPLLPSFKQYWNRGEPNNVGEEDCAEFSGNGWNDDKCNLAKFWICKKSAASCSRDEEQFLSPAPATPNPPPA
notes: DC-SIGN (Dendritic Cell specific ICAM-3 Grabbing Non-integrin), extracellular domain, amino acids 66-404; A factor Xa cleavage site lies between the N-terminal StreptagII and the ECD; On the chip the protein was captured by StrepTactin and then covalently fixed with EDC/NHS; source: E. coli Rosetta (DE3), inclusion bodies, purified (StrepTactin column, Mannan-agarose, Superose-12); not shown: …
Consider B1, for which the Kd amounted to 5 nM.

Values taken from paper doi:10.1101/780452, “Development of c-type lectin oriented surfaces for high avidity glycoconjugates: towards mimicking multivalent interactions on the cell surface” (bioRxiv, 2019).
